According to paper doi:10.1101/2023.05.05.539533 (bioRxiv, 2023):

B1: RCN1 (purified from E. coli) (natural protein)
chain: MAMVDEPLYPIAVLIDELKNDDIQLRLNSIRRLSTIARALGEERTRKELIPFLSENSDDDDEVLLAMAEELGVFIPFVGGIEFAHVLLPPLESLCTVEETCVREKAVESLCKIGSQMKENDLVESFVPLVKRLAGGEWFAARVSACGIFHVAYQGCTDVLKTELRATYSQLCKDDMPMVRRAAASNLGKFATTVESTFLIAEIMTMFDDLTKDDQDSVRLLAVEGCAALGKLLEPQDCVARILPVIVNFSQDKSWRVRYMVANQLYELCEAVGPDCTRTDLVPAYVRLLRDNEAEVRIAAAGKVTKFCRLLNPELAIQHILPCVKELSSDSSQHVRSALASVIMGMAPILGKDSTIEHLLPIFLSLLKDEFPDVRLNIISKLDQVNQVIGIDLLSQSLLPAIVELAEDRHWRVRLAIIEYVPLLASQLGIGFFDDKLGALCMQWLQDKVYSIREAAANNLKRLAEEFGPEWAMQHLVPQVLDMVNNPHYLHRMMVLRAISLMAPVMGSEITCSKFLPVVVEASKDRVPNIKFNVAKLLQSLIPIVDQSVVDKTIRQCLVDLSEDPDVDVRYFANQALNSIDGSTAAQS

Legend:
[1] = biological target: PSR2 (untagged, purified from E. coli) (P. sojae) (UniProt E0W4V5); test: ITC
[2] = biological target: ATB’g (Arabidopsis PP2A B subunit) (Arabidopsis thaliana) (UniProt Q8RW96); test: ITC
[3] = biological target: T1, PSR2 (untagged, purified from E. coli) (P. sojae, UniProt E0W4V5 18-670); test: pull-down
T1 sequence: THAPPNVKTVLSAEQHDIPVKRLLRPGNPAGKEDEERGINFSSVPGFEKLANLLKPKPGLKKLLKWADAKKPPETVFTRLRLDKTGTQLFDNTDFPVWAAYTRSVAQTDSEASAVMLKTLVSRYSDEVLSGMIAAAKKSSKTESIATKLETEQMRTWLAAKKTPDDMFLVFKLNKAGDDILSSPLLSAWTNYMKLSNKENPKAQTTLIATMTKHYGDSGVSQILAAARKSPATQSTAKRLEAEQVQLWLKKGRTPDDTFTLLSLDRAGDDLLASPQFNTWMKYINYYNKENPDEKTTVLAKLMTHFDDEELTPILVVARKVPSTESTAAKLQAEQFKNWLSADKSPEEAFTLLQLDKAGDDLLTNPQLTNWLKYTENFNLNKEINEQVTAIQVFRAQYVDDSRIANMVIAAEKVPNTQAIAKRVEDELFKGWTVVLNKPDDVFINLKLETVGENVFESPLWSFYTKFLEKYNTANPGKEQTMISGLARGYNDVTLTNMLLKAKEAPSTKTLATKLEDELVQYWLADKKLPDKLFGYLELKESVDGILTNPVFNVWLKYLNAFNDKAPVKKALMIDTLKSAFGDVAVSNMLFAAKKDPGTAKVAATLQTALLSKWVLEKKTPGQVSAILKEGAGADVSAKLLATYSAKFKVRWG

ATB’g (Arabidopsis PP2A B subunit) (Arabidopsis thaliana), sequence (Q8RW96 whole entry): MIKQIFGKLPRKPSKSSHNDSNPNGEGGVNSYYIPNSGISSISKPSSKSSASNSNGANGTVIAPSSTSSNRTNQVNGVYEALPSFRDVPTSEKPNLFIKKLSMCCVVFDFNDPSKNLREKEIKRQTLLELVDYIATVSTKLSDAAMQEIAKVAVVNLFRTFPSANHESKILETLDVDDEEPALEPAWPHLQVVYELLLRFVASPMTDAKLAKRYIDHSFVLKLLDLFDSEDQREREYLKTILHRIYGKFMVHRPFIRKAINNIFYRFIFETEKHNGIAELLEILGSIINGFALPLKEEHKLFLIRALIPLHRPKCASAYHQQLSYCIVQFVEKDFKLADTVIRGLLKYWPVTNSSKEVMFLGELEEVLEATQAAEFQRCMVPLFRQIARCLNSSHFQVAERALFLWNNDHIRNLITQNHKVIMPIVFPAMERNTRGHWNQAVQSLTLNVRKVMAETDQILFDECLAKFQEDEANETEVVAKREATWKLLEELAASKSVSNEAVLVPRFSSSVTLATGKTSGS

Molecule | Kd [1] [µM] | Kd [2] [µM] | binding result [3]
6×His-PDF1 (full-length PDF1, purified from E. coli) (from UniProt Q9S728 24-306) (natural protein) | 0.35 | 3.33 | 
B1 |  |  | binds
